Assay results published in patent US8734776B2 (ZymoGenetics, Inc., priority 2003, dated 2014).

Key:
AML-12 cells = experiment: ISG induction in mouse liver cell line AML-12 (real-time PCR); assay type: cell-based; conditions: 20 ng/ml, 48 hour time point
Mouse B cells = experiment: Mouse B cell 3H-thymidine incorporation; assay type: cell-based
Method: Mouse B cells were isolated from 2 Balb/C spleens (7 months old) by depleting CD43+ cells using MACS magnetic beads. Purified B cells were cultured in vitro with LPS, anti-IgM or anti-CD40 monoclonal antibodies. Mouse IL-28 or mouse IFNα was added to the cultures and ^3H-thymidine was added at 48 hrs. and ^3H-thymidine incorporation was measured after 72 hrs. culture.

[1] = system: encephelomyocarditis virus; experiment: Antiviral assay: cytopathic effect in HeLa cells; assay type: cell-based, human
adenoviral vector, AdGFP = experiment: Adenoviral (AdGFP) liver pathology in mice; assay type: in vivo, mouse; conditions: C57Bl/6 mice
Method: When injected intravenously, these viruses primarily target the liver for gene expression. The adenoviruses are replication deficient, but cause liver damage due to inflammatory cell infiltrate that can be monitored by measurement of serum levels of liver enzymes like AST and ALT, or by direct examination of liver pathology.
C57B116 mice were given once daily intraperitoneal injections of 50 μg mouse IL-28 (zcyto24 as shown in SEQ ID NO:8) or metIL-29C172S—PEG for 3 days. Control animals were injected with PBS. One hour following the 3rd dose, mice were given a single bolus intravenous tail vein injection of the adenoviral vector, AdGFP (1×10^9 plaque-forming units (pfu)). Following this, every other day mice were given an additional dose of PBS, mouse IL-28 or metIL-29C172S—PEG for 4 more doses (total of 7 doses). One hour following the final dose of PBS, mouse IL-28 or metIL-29C172S—PEG mice were terminally bleed and sacrificed. The serum and liver tissue were analyzed. Serum was analyzed for AST and ALT liver enzymes. Liver was isolated and analyzed for GFP expression and histology. For histology, liver specimens were fixed in formalin and then embedded in paraffin followed by H&E staining. Sections of liver that had been blinded to treat were examined with a light microscope. Changes were noted and scored on a scale designed to measure liver pathology and inflammation.

[2] = system: encephelomyocarditis virus; experiment: Antiviral assay: cytopathic effect in L929 cells; assay type: cell-based, mouse
[3] = system: ISRE signaling in HepG2 cells; conditions: 100 ng/ml; 4-hour

B1: zcyto24: mouse IL-28, SEQ ID NO:8 (protein, listed as Mus musculus)
chain: MKPETAGGHMLLLLLPLLLAAVLTRTQADPVPRATRLPVEAKDCHIAQFKSLSPKELQAFKKAKDAIEKRLLEKDLRCSSHLFPRAWDLKQLQVQERPKALQAEVALTLKVWENMTDSALATILGQPLHTLSHIHSQLQTCTQLQATAEPRSPSRRLSRWLHRLQEAQSKETPGCLEASVTSNLFRLLTRDLKCVANGDQCV
modifications: SIGNAL (1)...(28)
With B1 the “Mx1 expression relative to HPRT” value (AML-12 cells) was 0.08, the “OAS expression relative to HPRT” value (AML-12 cells) was 0.04 and the “PkR expression relative to HPRT” value (AML-12 cells) was 0.02. The “3H-thymidine incorporation by mouse B cells” value (Mouse B cells; stimulated with LPS or anti-IgM, IFNα 10 ng/ml, mouse IL-28 any concentration including 1000 ng/ml) was “did not inhibit”, the “3H thymidine incorporation by mouse B cells” value (Mouse B cells; stimulated with anti-CD40 MAb) was “increased” and the “Percentage Cytopathic Effect” value ([1]; relative CM concentration .008X) was 0%. For the same molecule, the “Percentage Cytopathic Effect” value ([1]; relative CM concentration .0156X) was 0%, the “Percentage Cytopathic Effect” value ([1]; relative CM concentration .0325X) was 0% and the “Percentage Cytopathic Effect” value ([1]; relative CM concentration .0625X) was 0%. The “Percentage Cytopathic Effect” value ([1]; relative CM concentration .125X) was 0%, the “Percentage Cytopathic Effect” value ([1]; relative CM concentration .25X) was 0% and the “Percentage Cytopathic Effect” value ([1]; relative CM concentration .5X) was 0%. For the same molecule, the “liver histology: liver and inflammation scores versus PBS-treated group” value (adenoviral vector, AdGFP) was “lower liver and inflammation scores”, the “average serum AST” value (adenoviral vector, AdGFP; 50 μg i.p., 7 doses, n=8) was 193 U/L and the relative liver fluorescence (adenoviral vector, AdGFP; 50 μg i.p., 7 doses, n=8) was 34.5 arbitrary units. For the same molecule, the “serum ALT” value (adenoviral vector, AdGFP; 50 μg i.p., 7 doses, n=8) was 216 U/L, the “Percentage Cytopathic Effect” value ([2]; relative CM conc. .008X) was 87% and the “Percentage Cytopathic Effect” value ([2]; relative CM conc. .0156X) was 87%. For the same molecule, the “Percentage Cytopathic Effect” value ([2]; relative CM conc. .0325X) was 87%, the “Percentage Cytopathic Effect” value ([2]; relative CM conc. .0625X) was 87% and the “Percentage Cytopathic Effect” value ([2]; relative CM conc. .125X) was 87%. The “Percentage Cytopathic Effect” value ([2]; relative CM conc. .25X) was 87%, the “Percentage Cytopathic Effect” value ([2]; relative CM conc. .5X) was 87% and the “Fold Induction of Cytokine-dependent ISRE Signaling in HepG2 Cells” value [3] was 4.7 fold.
